Experimental data as given in patent US20230220042A1 (SHANGHAI JIAO TONG UNIVERSITY SCHOOL OF MEDICINE, published 2023).
Numbering of substitutions follows the chain as printed. Numbers in names are those of the source.

T1: FcγRIIB (human, UniProt P31994 43-217, biotin-labeled)
T1 construct: extracellular domain; Bought protein; also called CD32b
T1 sequence (looked up): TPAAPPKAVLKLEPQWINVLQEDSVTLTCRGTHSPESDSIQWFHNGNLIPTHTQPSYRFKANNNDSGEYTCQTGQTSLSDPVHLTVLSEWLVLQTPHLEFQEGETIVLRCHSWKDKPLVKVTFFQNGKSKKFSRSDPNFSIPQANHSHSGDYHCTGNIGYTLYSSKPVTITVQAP

T2: FcγRIIA^131R (human, UniProt P12318 34-217, biotin-labeled)
T2 construct: extracellular domain; Bought protein; also called RIIAR
T2 sequence (looked up): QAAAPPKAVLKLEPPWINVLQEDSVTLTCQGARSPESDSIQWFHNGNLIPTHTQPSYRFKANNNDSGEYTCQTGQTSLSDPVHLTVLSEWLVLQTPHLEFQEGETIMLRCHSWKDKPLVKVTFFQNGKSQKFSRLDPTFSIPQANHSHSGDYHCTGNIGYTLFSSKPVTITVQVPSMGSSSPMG

T3: FcγRIIA^131H (human, UniProt P12318 34-217, biotin-labeled)
T3 construct: extracellular domain; Bought protein; also called RIIAH
T3 sequence (looked up): T2 sequence (looked up) with R134H

B1: IgG2 N297A (antibody, name in EU numbering)
heavy: QVQLQESGPGLVKPSGTLSLTCAVSGGSISSSIWWSWVRQPPGKGLEWIGEIHHSGNTNCNPSLKSRVTISIDKSKNQFSLKLTSVTAADTAVYYCARAGTGTTLDYWGQGTLVTVSSASTKGPSVFPLAPCSRSTSESTAALGCLVKDYFPEPVTVSWNSGALTSGVHTFPAVLQSSGLYSLSSVVTVPSSNFGTQTYTCNVDHKPSNTKVDKTVERKCCVECPPCPAPPVAGPSVFLFPPKPKDTLMISRTPEVTCVVVDVSHEDPEVQFNWYVDGVEVHNAKTKPREEQFASTFRVVSVLTVVHQDWLNGKEYKCKVSNKGLPAPIEKTISKTKGQPREPQVYTLPPSREEMTKNQVSLTCLVKGFYPSDIAVEWESNGQPENNYKTTPPMLDSDGSFFLYSKLTVDKSRWQQGNVFSCSVMHEALHNHYTQKSLSLSPGK
light: EIVLTQSPGTLSLSPGERATLSCRASQSVSGDYLAWYQQKLGQAPRLLIYGASIRATGIPDRFSGSGSGTDFTLTISKLEPEDFAVYYCQQYGSSPLTFGGGTKVEIKRTVAAPSVFIFPPSDEQLKSGTASVVCLLNNFYPREAKVQWKVDNALQSGNSQESVTEQDSKDSTYSLSSTLTLSKADYEKHKVYACEVTHQGLSSPVTKSFNRGEC
notes: Entries include an unstated signal peptide
B2: anti-human OX40 IgG2 antibody Mut_1 (L328W) (antibody, name in EU numbering)
heavy: B1 heavy with A294N, L325W
light: B1 light
notes: Substitutions in Eu numbering; entries include an unstated signal peptide
B3: anti-human OX40 IgG2 antibody Mut_7 (S239V/V266L/S298L/L328W) (antibody, name in EU numbering)
heavy: B1 heavy with S236V, V263L, A294N, S295L, L325W
light: B1 light
notes: as for B2
B4: anti-human OX40 IgG2 antibody Mut_2 (H268D/S298L/L328W) (antibody, name in EU numbering)
heavy: B1 heavy with H265D, A294N, S295L, L325W
light: B1 light
notes: as for B2
B5: anti-human OX40 IgG2 antibody Mut_3 (S267V/S298L/L328W) (antibody, name in EU numbering)
heavy: B1 heavy with S264V, A294N, S295L, L325W
light: B1 light
notes: as for B2
B6: anti-human OX40 IgG2 antibody Mut_6 (V234Q/A235G/P238L/S239V/H268D/G327A/L328E/A330S/I332T) (antibody)
heavy: B1 heavy with V232Q, A233G, P235L, S236V, H265D, A294N, G324A, L325E, A327S, I329T
light: B1 light
notes: entries include an unstated signal peptide
B7: anti-human OX40 IgG2 antibody Mut_9 (V266L/S267D/H268D/E269D/P271Q) (antibody, name in EU numbering)
heavy: B1 heavy with V263L, S264D, H265D, E266D, P268Q, A294N
light: B1 light
notes: as for B2
B8: anti-human OX40 IgG2 antibody Mut_5 (A235W/V266L/S298L/L328W) (antibody)
heavy: B1 heavy with A233W, V263L, A294N, S295L, L325W
light: B1 light
notes: as for B2
B9: anti-human OX40 IgG2 antibody Mut_4 (V234M/S267E/S298L/L328W) (antibody)
heavy: B1 heavy with V232M, S264E, A294N, S295L, L325W
light: B1 light
notes: as for B2

These binders were tested against T4, FcγRIIIA^158V (human, UniProt P08637 17-208, biotin-labeled) (assay: ELISA, coated antibody, biotin-FcγR;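 as to Absorbance value: antibody coated at 2 µg/mL at 100 µL per well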).
T4 construct: extracellular domain; Bought protein; also called RIIIAV; CD16a 158V
Procedure: (§1) One hundred μl (2 μg/mL) of antibody or mutant thereof were added to the enzyme-linked plate to be coated overnight, then the supernatant was discarded. The plate was blocked with PBS containing 1% BSA for 2 hours, and washed with PBST (PBS containing 0.05% Tween 20). Biotin-labeled FcγR extracellular domain protein (Beijing Sino Biological Co., Ltd) of appropriate concentration was added and incubated at room temperature for 1 hour, then the supernatant was discarded and the plate was washed with PBST. The Biotin-labeled protein was detected by incubating with Streptavidin-HRP (BD BioSciences) at room temperature for 1 hour. The supernatant was removed, and the color-developing solution was added for color development for 20-40 minutes to determine the absorbance of 650 nm (A650).
(§2) Anti-human OX40 antibodies containing these new Fc mutation combinations are expressed and the binding property of the mutant antibody to FcγR are analyzed by Enzyme-linked immunosorbent assay (ELISA).

T4 sequence (P08637 17-208 F176V): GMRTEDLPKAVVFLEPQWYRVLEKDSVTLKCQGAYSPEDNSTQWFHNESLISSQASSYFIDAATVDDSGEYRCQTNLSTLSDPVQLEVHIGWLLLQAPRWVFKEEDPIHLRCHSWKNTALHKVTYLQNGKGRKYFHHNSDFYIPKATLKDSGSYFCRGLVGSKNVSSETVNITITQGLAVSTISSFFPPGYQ

| Binder | Absorbance value [A650] | Relative binding affinity RIIIAV/G1 [ratio] |
| --- | --- | --- |
| B1 | 0.06 | 0.06 |
| B2 | 0.09 | 0.09 |
| B3 | 0.06 | 0.07 |
| B4 | 0.06 | 0.06 |
| B5 | 0.07 | 0.08 |
| B6 | 0.06 | 0.06 |
| B7 | 0.07 | 0.08 |
| B8 | 0.06 | 0.07 |
| B9 | 0.05 | 0.06 |

What follows are binders tested against T5, FcγRIIIA^158F (human, UniProt P08637 17-208, biotin-labeled) (assay: ELISA, coated antibody, biotin-FcγR;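 as to Absorbance value: antibody coated at 2 µg/mL at 100 µL per well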).
T5 construct: extracellular domain; Bought protein; also called RIIIAF
Procedure: as §1, §2

T5 sequence (P08637 17-208): as the sequence (P08637 17-208 F176V) above, with V160F counted along it

| Binder | Absorbance value [A650] | Relative binding affinity RIIIAF/G1 [ratio] |
| --- | --- | --- |
| B2 | 0.07 | 0.38 |
| B3 | 0.07 | 0.38 |
| B4 | 0.07 | 0.38 |
| B5 | 0.08 | 0.4 |
| B6 | 0.06 | 0.3 |
| B7 | 0.07 | 0.38 |
| B8 | 0.06 | 0.31 |
| B9 | 0.06 | 0.32 |

What follows are binders tested against T1, FcγRIIB (assay: ELISA, coated antibody, biotin-FcγR;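 as to Absorbance value: antibody coated at 2 µg/mL at 100 µL per well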).
Procedure: as §1, §2

| Binder | Absorbance value [A650] | Increased factor of RIIB binding compared with wild-type IgG2 [fold] | Relative binding affinity RIIB/G1 [ratio] |
| --- | --- | --- | --- |
| B1 | 0.07 | 0.93 | 0.09 |
| B2 | 0.64 | 8.51 | 0.85 |
| B3 | 0.58 | 7.7 | 0.76 |
| B4 | 1 | 13.4 | 1.33 |
| B5 | 0.94 | 12.6 | 1.25 |
| B6 | 0.5 | 6.63 | 0.66 |
| B7 | 1.2 | 16 | 1.59 |
| B8 | 1.18 | 15.7 | 1.56 |
| B9 | 1.92 | 25.6 | 2.54 |

What follows are binders tested against T2, FcγRIIA^131R (assay: ELISA, coated antibody, biotin-FcγR;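 as to Absorbance value: antibody coated at 2 µg/mL at 100 µL per well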).
Procedure: as §1, §2

| Binder | Absorbance value [A650] | Relative binding affinity RIIAR/G1 [ratio] |
| --- | --- | --- |
| B2 | 0.22 | 0.83 |
| B3 | 0.23 | 0.87 |
| B4 | 0.29 | 1.09 |
| B5 | 0.23 | 0.87 |
| B6 | 0.05 | 0.19 |
| B7 | 0.74 | 2.83 |
| B8 | 0.46 | 1.77 |
| B9 | 1.44 | 5.51 |

These binders were tested against T3, FcγRIIA^131H (assay: ELISA, coated antibody, biotin-FcγR;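 as to Absorbance value: antibody coated at 2 µg/mL at 100 µL per well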).
Procedure: as §1, §2

| Binder | Absorbance value [A650] | Relative binding affinity RIIAH/G1 [ratio] |
| --- | --- | --- |
| B1 | 0.04 | 0.08 |
| B2 | 0.35 | 0.62 |
| B3 | 0.38 | 0.67 |
| B4 | 0.32 | 0.56 |
| B5 | 0.34 | 0.6 |
| B6 | 0.05 | 0.08 |
| B7 | 0.2 | 0.34 |
| B8 | 0.46 | 0.81 |
| B9 | 0.48 | 0.84 |

What follows are binders tested against T6, FcγRI (human, UniProt P12314 16-292, biotin-labeled) (assay: ELISA, coated antibody, biotin-FcγR;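 as to Absorbance value: antibody coated at 2 µg/mL at 100 µL per well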).
T6 construct: extracellular domain; Bought protein; also called CD64
Procedure: as §1, §2

T6 sequence (P12314 16-292): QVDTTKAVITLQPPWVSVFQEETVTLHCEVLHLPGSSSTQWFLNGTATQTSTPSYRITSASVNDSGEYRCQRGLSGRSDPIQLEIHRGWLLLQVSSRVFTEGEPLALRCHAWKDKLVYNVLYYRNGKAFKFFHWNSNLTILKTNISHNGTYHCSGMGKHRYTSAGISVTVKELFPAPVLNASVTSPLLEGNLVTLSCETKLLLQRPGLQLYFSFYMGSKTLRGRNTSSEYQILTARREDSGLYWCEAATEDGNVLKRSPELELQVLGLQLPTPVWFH

| Binder | Absorbance value [A650] | Relative binding affinity RI/G1 [ratio] |
| --- | --- | --- |
| B1 | 0.08 | 0.03 |
| B2 | 0.17 | 0.06 |
| B3 | 0.13 | 0.05 |
| B4 | 0.14 | 0.05 |
| B5 | 0.18 | 0.07 |
| B6 | 0.09 | 0.03 |
| B7 | 0.12 | 0.05 |
| B8 | 0.38 | 0.14 |
| B9 | 0.25 | 0.1 |

Each binder was assayed against T1, FcγRIIB (assay: ELISA; relative affinity to FcγRIIB over that to FcγRIIA131R).
Procedure: as §1, §2

| Binder | RIIB/RIIAR [ratio] |
| --- | --- |
| B1 | 0.57 |
| B2 | 1.02 |
| B3 | 0.88 |
| B4 | 1.21 |
| B5 | 1.44 |
| B6 | 3.52 |
| B7 | 0.56 |
| B8 | 0.88 |
| B9 | 0.46 |
